The target of experiment [1] is T1, huBTLA:huIgG recombinant fusion protein (human, UniProt Q7Z6A9 31-157, limits assumed).
T1 construct: Produced in 293T cells; Used as the immunogen and as the ELISA screening antigen; not shown: human IgG portion
T1 sequence (looked up): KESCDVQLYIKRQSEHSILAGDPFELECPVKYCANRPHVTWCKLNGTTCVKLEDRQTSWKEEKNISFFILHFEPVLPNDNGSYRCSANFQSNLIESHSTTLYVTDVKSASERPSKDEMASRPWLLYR
Briefly: ELISA screen against huBTLA:huIgG (with purified huIgG as counter-screen).

Experiment [2] addresses T2, human BTLA expressed on cells (human, UniProt Q7Z6A9 31-289).
T2 construct: whole, on cells; also called huBTLA; B and T lymphocyte attenuator
As to the kind of experiment: flow cytometry on MEF cells expressing huBTLA compared to non-BTLA expressing parental cells.
Protocol: The resulting hybridoma clones were screened by ELISA against huBTLA:huIgG and purified huIgG to identify those specific for huBTLA. A secondary screen was performed by binding to Beg+/+MEF cells expressing huBTLA and analyzing by flow cytometry compared to the non-BTLA expressing parental cells.

B1: anti-human BTLA monoclonal antibody clone 6F4 (antibody, V domains shown)
VH: EVQILETGGGLVKPGGSLRLSCATSGFNFNDYFVNWVRQAPGKGLQWVAQIRNKNYNPATYYAESLEGRVTISRDDSKSSVYLQVSSVRAEDTAIYYCSPISSYYHDGSLHYSDYWGQGVMVTVSS
VL: DIQMTQSPSVLSVSVGDRVTLNCKASHNIKNYLNWYQQKLGEAPKLLIYDTVNLQTGIPSRFSGSGSGTDFTVTISSLQPEDVATYFCFQYHSWPYTFGAGTKLELKR
notes: also called rat anti-hBLTA Mab Clone 6F4; Anti BTLA 6F4
As to B1, the binding result in experiment [1] and in experiment [2] was “binds” throughout.

The values above are taken from patent US20180155426A1 (SANFORD BURNHAM PREBYS MEDICAL DISCOVERY INSTITUTE, published 2018).
